Results as given in patent US20160244497A1 (Amgen, published 2016).
Residue numbers refer to the chain shown, from its start. Numbers in names are those of the source. Read-outs that look alike come from different tables or passages of the source.

B1: wild-type FGF21 (mature, un-PEGylated) (ligand)
chain: MHPIPDSSPLLQFGGQVRQRYLYTDDAQQTEAHLEIREDGTVGGAADQSPESLLQLKALKPGVIQILGVKTSRFLCQRPDGALYGSLHFDPEACSFRELLLEDGYNVYQSEAHGLPLHLPGNKSPHRDPAPRGPARFLPLPGLPPAPPEPPGILAPQPPDVGSSDPLSMVGPSQGRSPSYAS
B2: FGF21 mutant R77C, P171G, PEGylated at the N-terminus and Cys 77 (2 x 20k) (ligand)
chain: B1 chain with R78C, P172G
modifications: 20 kDa PEG on the N-terminus; 20 kDa PEG on Cys 77
B3: FGF21 mutant H125C, P171G, PEGylated at the N-terminus and Cys 125 (2 x 20k) (ligand)
chain: B1 chain with H126C, P172G
modifications: 20 kDa PEG on the N-terminus; 20 kDa PEG on Cys 125
B4: FGF21 mutant H125C, P171G, PEGylated at the N-terminus (10k) and Cys 125 (20k) (ligand)
chain: B1 chain with H126C, P172G
modifications: 10 kDa PEG on the N-terminus; 20 kDa PEG on Cys 125
B5: FGF21 mutant H125C, P171G, PEGylated at the N-terminus (5k) and Cys 125 (20k) (ligand)
chain: B1 chain with H126C, P172G
modifications: 5 kDa PEG on the N-terminus; 20 kDa PEG on Cys 125
B6: Tethered Molecule of two FGF21 H125C, P171G polypeptides (20 kDa PEG linker) (ligand)
chain: B1 chain with H126C, P172G
modifications: Cys 125 of the two chains joined by one 20 kDa PEG bis-maleimide
B7: Tethered Molecule of two FGF21 R77C, P171G polypeptides (20 kDa PEG linker) (ligand)
chain: B1 chain with R78C, P172G
modifications: Cys 77 of the two chains joined by one 20 kDa PEG bis-maleimide
B8: Tethered Molecule of two FGF21 G120C, P171G polypeptides (20 kDa PEG linker) (ligand)
chain: B1 chain with G121C, P172G
modifications: Cys 120 of the two chains joined by one 20 kDa PEG bis-maleimide
B9: Tethered Molecule of two FGF21 E37C, P171G polypeptides (20 kDa PEG linker) (ligand)
chain: B1 chain with E38C, P172G
modifications: Cys 37 of the two chains joined by one 20 kDa PEG bis-maleimide
B10: Tethered Molecule of two FGF21 R175C, P171G polypeptides (20 kDa PEG linker) (ligand)
chain: B1 chain with P172G, R176C
modifications: Cys 175 of the two chains joined by one 20 kDa PEG bis-maleimide
B11: Tethered Molecule of two FGF21 E91C, P171G polypeptides (20 kDa PEG linker) (ligand)
chain: B1 chain with E92C, P172G
modifications: Cys 91 of the two chains joined by one 20 kDa PEG bis-maleimide
B12: Tethered Molecule of two FGF21 G170C polypeptides (20 kDa PEG linker) (ligand)
chain: B1 chain with G171C
modifications: Cys 170 of the two chains joined by one 20 kDa PEG bis-maleimide

Tests used:
Assay in all cases: cell-based or functional assay
beta-klotho [1] = molecular target: beta-klotho
beta-klotho [2] = molecular target: beta-klotho; remark: listed apart in the source
beta-klotho [3] = molecular target: beta-klotho; remark: listed apart in the source
beta-klotho [4] = molecular target: beta-klotho; remark: listed apart in the source
beta-klotho [5] = molecular target: beta-klotho; remark: listed apart in the source

| Binder | EC50, ELK-luciferase assay (beta-klotho [4]) [nM] | EC50, ELK-luciferase assay (beta-klotho [5]) [nM] | also measured |
| --- | --- | --- | --- |
| B1 | – | – | EC50, ELK-luciferase assay (beta-klotho [1]): 3 nM; EC50, ELK-luciferase assay (beta-klotho [2]): 0.63 nM; In Vitro Activity EC50, ELK-luciferase assay (beta-klotho [3]): 3 nM |
| B2 | 64 | – | – |
| B3 | 152 | – | – |
| B4 | 65 | – | – |
| B5 | 30 | – | – |
| B6 | – | 0.21 | – |
| B7 | – | 0.25 | – |
| B8 | – | 0.51 | – |
| B9 | – | 0.36 | – |
| B10 | – | 0.36 | – |
| B11 | – | 0.2 | – |
| B12 | – | 0.47 | – |
